In patent US20250042968A1, “EPHRIN LIGAND MIMETIC PEPTIDES FOR THE TREATMENT OF NEURODEGENERATIVE DISEASES” (University of Miami, priority 2022, published 2025):

System: human fetal brain-derived neural stem cells (hNSC)
Assay: hNSC growth on ephrin-ligand repulsive substrates
Type: cell-based
Conditions: for substrate effect on neuronal cell growth: laminin-coated surfaces containing pre-clustered efn ligand
Method: Fetal brain-derived neural stem cells (hNSC): In order to evaluate the effect of xEFN peptides on human neuronal cells, StemPro hNSC were purchased from ThermoFisher Scientific (Cat. no. A15654) and cultured according to the manufacturer's recommended protocol. Briefly, cells were grown in non-adherent neurosphere suspension cultures in StemPro NSC serum-free media (NSC-SFM) (Cat. no. A10509-01) supplemented with 2 mM GlutaMAX-I supplement, 6 U/mL heparin, and 200 μM ascorbic acid (Sigma-Aldrich, Cat. no. A8960). Culture media was changed every 2 days and cells were passaged every 7 days as undifferentiated hNSC. To induce differentiation into neuronal cells, hNSC neurospheres were dissociated into single-cell suspensions using StemPro Accutase for 5 minutes at 37° C. followed by mechanical pipetting. hNSC were then plated onto Geltrex-coated culture vessels at a concentration of 2×10^4 cells/cm^2 in neuronal differentiation media consisting of NSC media without bFGF or EGF and supplemented with B-27 supplement (ThermoFisher Scientific) for 3 days prior to performing further in vitro assays.
Glial-bound efn ligands have been associated with mediating the major repulsive milieu for neuronal process in the CNS. […] Moreover, assays on the repulsive nature of efn ligand-presenting surfaces have been a mainstay in axonal guidance studies for many decade. The use of xEFN peptides to antagonize this repulsive signaling from efn ligand substrates was evaluated on human fetal brain-derived neural stem cells (hNSC).
Recombinant Efn ligands (A2, A4, and B3) containing a His-Tag were purchased from R&D Systems, and were pre-clustered using an anti-His antibody (Genetex) for 30 min. The pre-clustered Efn ligands, or anti-his antibody alone, (control) were then mixed with laminin from human placenta (Sigma-Aldrich) in suspension and used to coat the growth surface of a 24-well plate. […] The entire wells were then scanned using an EVOS FL Auto fluorescent microscope and the images were analyzed in the ImageJ software to calculate cell coverage area.

Molecule	substrate effect on neuronal cell growth	hNSC confluence on pre-clustered efn ligand substrate (no peptide, compared to the laminin-only control confluence)
efnB3: recombinant Efn ligand containing a His-Tag (R&D Systems), pre-clustered with anti-His antibody (protein, UniProt Q15768 28-226, looked up, extracellular domain His tag, pre-clustered, recombinant Efn ligand containing a His-Tag (R&D Systems), pre-clustered with anti-His antibody) extracellular domain: LSLEPVYWNSANKRFQAEGGYVLYPQIGDRLDLLCPRARPPGPHSSPNYEFYKLYLVGGAQGRRCEAPPAPNLLLTCDRPDLDLRFTIKFQEYSPNLWGHEFRSHHDYYIIATSDGTREGLESLQGGVCLTRGMKVLLRVGQSPRGGAVPRKPVSEMPMERDRGAAHSLEPGKENLPGDPTSNATSRGAEGPLPPPSMP	highly repulsive substrates	44.61+/−1.61%
efnB1: pre-clustered ephrin ligand on laminin-coated surface (protein, UniProt P98172 28-346, looked up, pre-clustered, pre-clustered ephrin ligand on laminin-coated surface) Ephrin-B1: LAKNLEPVSWSSLNPKFLSGKGLVIYPKIGDKLDIICPRAEAGRPYEYYKLYLVRPEQAAACSTVLDPNVLVTCNRPEQEIRFTIKFQEFSPNYMGLEFKKHHDYYITSTSNGSLEGLENREGGVCRTRTMKIIMKVGQDPNAVTPEQLTTSRPSKEADNTVKMATQAPGSRGSLGDSDGKHETVNQEEKSGPGASGGSSGDPDGFFNSKVALFAAVGAGCVIFLLIIIFLTVLLLKLRKRHRKHTQQRAAALSLSTLASPKGGSGTAGTEPSDIIIPLRTTENNYCPHYEKVSGDYGHPVYIVQEMPPQSPANIYYKV	highly repulsive substrates	–
